From PMC10132440

Key:
[1] = target: PN45545 TCR-CD3, strep-tagged, detergent-solubilized (SPR reagent) (humanized VelociT mouse | not stated) (UniProt P07766); test: SPR; conditions: peptide-MHC
[2] = target: PN45428 TCR-CD3, strep-tagged, detergent-solubilized (SPR reagent) (humanized VelociT mouse | not stated) (UniProt P07766); test: SPR; conditions: peptide-MHC

Row | Substance | Kd [1] | Kd [2]
1 | single-chain disulfide-stabilized MAGEA4 (230-239) pMHC (from UniProt P61769 21-119) | 6.1 µM | 
2 | single-chain disulfide-stabilized MAGEA8 (232-241) pMHC (from UniProt P61769 21-119) | 420 µM | 260 µM
